{"source": "the supplement of paper PMC7125110", "parents": {"B1": {"name": "glmS ribozyme (parent)", "chain": "AUAAAAGCGCCAGAACUACAGAAAUGUAGUUGACGAGGAGGAGGUUUAUCGAAUUUUCGGCGGAUGCCUCCAAA"}}, "note": "± gives the standard error. This sample holds only a part of the variants without activity.", "data": [{"variants_of": "B1", "assay": "self-cleavage kobs at 2500 uM GlcN6P; higher = faster cleavage; RNA array", "conditions": "with glucosamine-6-phosphate", "procedure,_shortened": "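Over ~14 h at 37 °C, tiles were imaged as glucosamine-6-phosphate (40 μM to 10 mM) in HEPES/KCl/Mg(OAc)2 buffer flowed across sequenced MiSeq chips. The chips carried barcoded ribozyme variants transcribed in situ by E. coli RNA polymerase and tracked with a hybridised Cy3 probe. After normalisation to baseline and to non-cleaving reference variants, one- or two-exponential decay fits of per-tile medians gave kobs. kcat and KM followed from weighted Michaelis–Menten fits across concentrations.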", "units": {"self-cleavage kobs at 2500 uM GlcN6P": "s⁻¹"}, "values": [{"variant": "AUAAAAGCUUCAGAACUACAGAAAUGUAGUUGACGAGGAGGAGGUUUAUCGAAUUUUCGGCGGAUGUCUCCAAA", "note": "[G9U C10U C67U]", "self-cleavage kobs at 2500 uM GlcN6P": "< 1e-05"}, {"variant": "AUAAAAGCUCCAGAACUACAGAAAUGUAGUUGACGAGGAGGAGGUUUAUAUAAUUUUCGGCGGAUGCGUCCAAA", "note": "[G9U C50A G51U C68G]", "self-cleavage kobs at 2500 uM GlcN6P": "0.00198 ± 0.00067"}, {"variant": "AUAAAAUCGCCAGAAUUACAGAAAUGUAGUUGACGAGGAGGAGGUAUAUCGAAUUUUCGGCGGAUGCCUCCAAA", "note": "[G7U C16U U46A]", "self-cleavage kobs at 2500 uM GlcN6P": "< 1e-05"}, {"variant": "AUAAAAUCGCCAGAACUACAGAAAUGUAGUUGACGAGGAGGAGGUUUAUCGGAUUUUCGCCGGAUGGCUCCAAA", "note": "[G7U A52G G60C C67G]", "self-cleavage kobs at 2500 uM GlcN6P": "< 1e-05"}, {"variant": "AUAAAAUCGCCAGAACUACAGAAAUGUAGUUGACGAGGAGGAGGUUUAACGAAUUUUCGGCGGAGGCCUCCAAA", "note": "[G7U U49A U65G]", "self-cleavage kobs at 2500 uM GlcN6P": "< 1e-05"}, {"variant": "AUAAAAGCCCCGGAACUACAGAAAUGUAGUUGACGAGGAGGAGGUUUAUCGAAUUUUGGGCGGAUGCCUCCAAA", "note": "[G9C A12G C58G]", "self-cleavage kobs at 2500 uM GlcN6P": "< 1e-05"}, {"variant": "AUAAAAGUGCCAGAACUACAGAAAUGUAGUUGACGAGGAGGGUGUUUAGCGAAUUUUCGGCGGAUGCCUCCAAA", "note": "[C8U A42G G43U U49G]", "self-cleavage kobs at 2500 uM GlcN6P": "< 1e-05"}, {"variant": "AUAAAAGAGCCAGAACUACAGAAAUGUAGUUGACGAGGAGGAGGUUUAUGGAAUUUUCGGCGGAUGCCGCCAAA", "note": "[C8A C50G U69G]", "self-cleavage kobs at 2500 uM GlcN6P": "0.000345 ± 7.5e-05"}, {"variant": "AUAAAAGCACCAGAACUACAGAAAUGUAGUUGACGAGGAGGAGUUUUAUCGAAUUUUCGACGGAUGCCUCCAAA", "note": "[G9A G44U G60A]", "self-cleavage kobs at 2500 uM GlcN6P": "< 1e-05"}, {"variant": "AUAAAACCGCCAAAACUACAGAAAUGUAGUUGACGAGGAGGAGGUUUAUCGUAUUUUCGGCGGAUCCCUCCAAA", "note": "[G7C G13A A52U G66C]", "self-cleavage kobs at 2500 uM GlcN6P": "< 1e-05"}, {"variant": "AUAAAAGGGCCAGAACUACAGAAAUGUAGUUGACAAGGAGGAGGUUUAUCGAAUUUUCGGCGGACGCCUCCAAA", "note": "[C8G G35A U65C]", "self-cleavage kobs at 2500 uM GlcN6P": "< 1e-05"}, {"variant": "AUAAAAUCGCCAGAACUACAGAAAUGUAGUUGACGAGGAGGAGGUUGAUCGUAUUUUCGGCGGAUGCCUCCAAA", "note": "[G7U U47G A52U]", "self-cleavage kobs at 2500 uM GlcN6P": "< 1e-05"}, {"variant": "AUAAAAGCUCCAGAAAUACAGAAAUGUAGGUGACGAGGAGGAGGUUUAUCGAAUUUUCGGCGGAUGCCUCCAAA", "note": "[G9U C16A U30G]", "self-cleavage kobs at 2500 uM GlcN6P": "< 1e-05"}, {"variant": "AUAAAAGGGUCAGAACUACAGAAAUGUAGUUGACGAUGAGGCGGUUUAUCGAAGUUUCGGCGGGUGCCUGCAAA", "note": "[C8G C10U G37U A42C U54G A64G C70G]", "self-cleavage kobs at 2500 uM GlcN6P": "< 1e-05"}, {"variant": "AUAAAAGGGCCAGAACUACAGAAAUGUAGUUGACUAGGCGGAGGUUUAUCGAAUUUUCGGCGGAUGCCUCCAAA", "note": "[C8G G35U A39C]", "self-cleavage kobs at 2500 uM GlcN6P": "< 1e-05"}, {"variant": "AUAAAAGAGCCAGAACUACAGAAAUGUAGUUGACGAGGAGGAGGUUUAUCGACUCUUCGUCGGAUGCGUCCAAA", "note": "[C8A A53C U55C G60U C68G]", "self-cleavage kobs at 2500 uM GlcN6P": "< 1e-05"}, {"variant": "AUAAAAUCGCCAGAACUACAGAAAUGUAGUUGACGAGGAGGAGGUUUAUCGAAUUUUCGGCGGGUACCUCCAAA", "note": "[G7U A64G G66A]", "self-cleavage kobs at 2500 uM GlcN6P": "< 1e-05"}, {"variant": "AUAAAAGCACCAGAACUACAGAAAUGUAGUUGACGAGGAGGUGGUUUAUCGAAUUUUCGGCGGAUGCCUCCAAA", "note": "[G9A A42U]", "self-cleavage kobs at 2500 uM GlcN6P": "< 1e-05"}, {"variant": "AUAAAAGGGCCAGAACUACAGAAAUGUAGUUGACGAGGAGGAGGUUUAUCGAAUUUUCGGCGGGUGCCACUAAA", "note": "[C8G A64G U69A C71U]", "self-cleavage kobs at 2500 uM GlcN6P": "< 1e-05"}, {"variant": "AUAAAAGCCCGAGAACUACAGAAAUGUAGUUGACGAGGAGGAGGUUUAUCGAAUUUUCGGCGGAUGCCUCUAAA", "note": "[G9C C11G C71U]", "self-cleavage kobs at 2500 uM GlcN6P": "< 1e-05"}, {"variant": "AUAAAACCGCCAGAACUACAGAAAUGUAGUUGACGAGGAGGAGGUUUAUCGAGUUUUCGGCGGAUGCCUACAAA", "note": "[G7C A53G C70A]", "self-cleavage kobs at 2500 uM GlcN6P": "< 1e-05"}, {"variant": "AUAAAAGCACCAGAACUACAGAAAUGUAGUUGACGACCAGGAGGUUUAUCGAAUUUUCGGCGGAUGCCUCCAAA", "note": "[G9A G37C G38C]", "self-cleavage kobs at 2500 uM GlcN6P": "< 1e-05"}, {"variant": "AUAAAAUCGCCAGAACUACAGAAAUGUAGUUGACGAGUAGGAGGUUUAUCGAAUUUUCGGCGGAUUCCUCCAAA", "note": "[G7U G38U G66U]", "self-cleavage kobs at 2500 uM GlcN6P": "< 1e-05"}, {"variant": "AUAAAAGCCCCAGACCUACAGAAAUGUAGUUGCCGAGGAGGAGGUAUAUCGAAUUUUCGGCGGAGGCCUCCAAA", "note": "[G9C A15C A33C U46A U65G]", "self-cleavage kobs at 2500 uM GlcN6P": "< 1e-05"}, {"variant": "AUAAAACCGCCAGAACUACAGAAAUGUAGGUGACGAAGAGGAGGUUUAUCGAAUUUUCGGCGGAUGCCUCCAAA", "note": "[G7C U30G G37A]", "self-cleavage kobs at 2500 uM GlcN6P": "< 1e-05"}, {"variant": "AUAAAACCGCCAGAACUACAGAAAUGUAGUUGAAGAGGAGGAGGUGUAUCGAAUUUUCGGCGCAUGCCUCCAAA", "note": "[G7C C34A U46G G63C]", "self-cleavage kobs at 2500 uM GlcN6P": "< 1e-05"}, {"variant": "AUAAAAGCACGAGAACUACAGAAAUGUAGUUGUCAAGGAGGAGGUUUAUCGAAUUUUAGGCGGAUGCCUGCAAA", "note": "[G9A C11G A33U G35A C58A C70G]", "self-cleavage kobs at 2500 uM GlcN6P": "< 1e-05"}, {"variant": "AUAAAAGAGCCAGAACUACAGAAAUGUAGUUGACGAGGAGGAGGUUUAUCGAAUUUUCAGCGGAUGCCUUCAAA", "note": "[C8A G59A C70U]", "self-cleavage kobs at 2500 uM GlcN6P": "< 1e-05"}, {"variant": "AUAAAAUCGCCAGAACUACAGAAAUGUAGUUGACGAGGAGGAGGUUUAUCGAACUUUCGGAGGAUGCCUCCAAA", "note": "[G7U U54C C61A]", "self-cleavage kobs at 2500 uM GlcN6P": "< 1e-05"}, {"variant": "AUAAAAGUGCCAGAACUACAGAAAUGUAGUUGACGAGGAGGAGGUUUAUCUAAUUUCCGGCGGAUGCCUCCAAA", "note": "[C8U G51U U57C]", "self-cleavage kobs at 2500 uM GlcN6P": "< 1e-05"}, {"variant": "AUAAAAUCUCCAGAACUACAGAAAUGUAGUUGACGAGGAGGAGGUUUAUCGAAUUAUCUGCGGAUGCCUCCAAA", "note": "[G7U G9U U56A G59U]", "self-cleavage kobs at 2500 uM GlcN6P": "< 1e-05"}, {"variant": "AUAAAACCGCCAGAACUACAGAAAUGUAUUUGACUAGGAGGAGGUUUAUCGAAUUUUCGGCGGAUGCCUCCAAA", "note": "[G7C G29U G35U]", "self-cleavage kobs at 2500 uM GlcN6P": "< 1e-05"}, {"variant": "AUAAAAGUGGCAGAACUACAGAAAUGUAGUUGACGAGAAGGAGGUUUAUCGAAUUUUCGGCGGAUGCCUCCAAA", "note": "[C8U C10G G38A]", "self-cleavage kobs at 2500 uM GlcN6P": "< 1e-05"}, {"variant": "AUAAAAGAGCCAGAACUACAGAAAUGUAGUUGACGAGGAGAAGGUUUAUCGAAUUUUCGGCGGACGCCUCCAAA", "note": "[C8A G41A U65C]", "self-cleavage kobs at 2500 uM GlcN6P": "< 1e-05"}, {"variant": "AUAAAAGAGCCAGAACUACAGAAAUGUAGUUGACGAGGAGGAGGUUUCACGAAUUUUCGGCGGAUGCCUCCAAA", "note": "[C8A A48C U49A]", "self-cleavage kobs at 2500 uM GlcN6P": "< 1e-05"}, {"variant": "AUAAAAGGGCCAGAUCUACAGAAAUGUAGUUGACGAGGAGGAGGUUGAUCGAAUUUUCGGCGGAUGCCUCCAAA", "note": "[C8G A15U U47G]", "self-cleavage kobs at 2500 uM GlcN6P": "< 1e-05"}, {"variant": "AUAAAAGCUCCAGAACUACAGAAAUGUAGUUACCGAGGAGGAGGUUUAUCGAAUUUUCGGCGGAUGCCUCCAAA", "note": "[G9U G32A A33C]", "self-cleavage kobs at 2500 uM GlcN6P": "< 1e-05"}]}]}
